From patent US20180271960A1, “METHOD TO TREAT CANCER USING ARGININE DELPETOR AND ORNITHINE DECARBOXYLASE (ODC) INHIBITOR” (Bio-Cancer Treatment International Ltd., priority 2015, published 2018) come the findings set out here.

“Also recorded” adds a separate entry of the source.

Assay [1] has as its system SU-DHL-6 B cell lymphoma xenograft. The assay can be described thus: SU-DHL-6 B cell lymphoma xenograft model. The settings on record: SU-DHL-6 xenograft; PEG-BCT-100 20 mg/kg IV twice a week; DFMO 2% w/v in drinking water. The format is in vivo, mouse. The method, then: In one example embodiment, the SU-DHL-6 human lymphoma cells are maintained in vitro as a suspension culture in RPMI1640 medium supplemented with 10% heat inactivated fetal bovine serum at 37° C. in an atmosphere of 5% CO2 in air. The tumour cells are routinely sub-cultured twice weekly. The cells growing in an exponential growth phase are harvested and counted for tumour inoculation.
One day before tumour inoculation, all mice are sub-lethally irradiated with 60Co (200 rad). Each mouse is inoculated subcutaneously at the right flank region with SU-DHL-6 tumour cells (5×10^6) in 0.1 ml of PBS/Matrigel (1:1) for tumour development. The treatments start when the mean tumour size reaches 125 mm^3. The date of tumour cell inoculation is denoted as day 0.
Four groups of animals, with eight animals in each group, are tested. Control group (negative control) receives physiological saline, and the three treatment groups respectively receive 20 mg/kg of PEG-BCT-100 alone, 2% w/v DFMO in drinking water, and a combination of 20 mg/kg of PEG-BCT-100 and 2% w/v DFMO. PEG-BCT-100 is administered intravenously, twice a week, until euthanization while DFMO is supplied in drinking water at 2% w/v.

The subject of assay [2] is Hep 3B hepatocellular carcinoma xenograft. The assay can be described thus: Hep 3B hepatocellular carcinoma xenograft model. It counts as in vivo, mouse. The settings on record: Hep 3B xenograft; PEG-BCT-100 20 mg/kg IV twice a week; DFMO 2% w/v in drinking water. The procedure: In one example embodiment, the Hep 3B tumour cells are maintained in vitro culture in EMEM medium supplemented with 10% heat inactivated fetal bovine serum at 37° C. in an atmosphere of 5% CO2 in air. The tumour cells are routinely sub-cultured twice weekly. The cells growing in an exponential growth phase are harvested and counted for tumour inoculation.
Each mouse is inoculated subcutaneously at the right flank region with Hep 3B tumour cells (5×10^6) in 0.1 ml of PBS (1:1 Matrigel) for tumour development. The treatments start when the mean tumour size reaches 119 mm^3. The date of tumour cell inoculation is denoted as day 0.
(§1) Four treatment groups of animals, with eight animals in each group, are tested. Control group (negative control) receives physiological saline, and the three treatment groups respectively receive 20 mg/kg of PEG-BCT-100 alone, 2% w/v DFMO in drinking water, and combination of 20 mg/kg of PEG-BCT-100 and 2% w/v DFMO. PEG-BCT-100 is administered intravenously, twice a week, until euthanization while DFMO is supplied in drinking water at 2% w/v.

Assay [3] deals with Hep G2 hepatocellular carcinoma xenograft. The assay can be described thus: Hep G2 hepatocellular carcinoma xenograft model. It counts as in vivo, mouse. To be noted: PEG-BCT-100 20 mg/kg IV twice a week, DFMO 2% w/v in drinking water. The procedure: In one example embodiment, the Hep G2 human liver cancer cells are maintained in vitro culture in RPMI1640 medium supplemented with 10% fetal bovine serum at 37° C. in an atmosphere of 5% CO2 in air. The tumour cells are routinely sub-cultured twice weekly. The cells in an exponential growth phase are harvested and counted for tumour inoculation.
Each mouse is inoculated subcutaneously at the right flank region with Hep G2 tumour cells (1×10^7) in 0.2 ml of PBS (1:1 Matrigel) for tumour development. The treatments start when the mean tumour volume reaches 124 mm^3. The date of tumour cell inoculation is denoted as day 0.
as §1

The test system of assay [4] is CAPAN-1 pancreatic cancer xenograft. The assay can be described thus: CAPAN-1 pancreatic cancer xenograft model. The format is in vivo, mouse. The settings on record: CAPAN-1 xenograft; PEG-BCT-100 20 mg/kg IV twice a week; DFMO 2% w/v in drinking water. The method, then:
In one example embodiment, the CAPAN-1 tumour cells are maintained in vitro culture in EMEM medium supplemented with 10% heat inactivated fetal bovine serum at 37° C. in an atmosphere of 5% CO2 in air. The tumour cells are routinely sub-cultured twice weekly. The cells growing in an exponential growth phase are harvested and counted for tumour inoculation.
Each mouse is inoculated subcutaneously at the right flank region with CAPAN-1 tumour cells (5×10^6) in 0.1 ml of PBS (1:1 Matrigel) for tumour development. The treatments start when the mean tumour size reaches 119 mm^3. The date of tumour cell inoculation is denoted as day 0.
as §1

The subject of assay [5] is H358 lung adenocarcinoma cell line. In words: MTT assay, growth inhibition of H358 cell line. The format is cell-based. The settings on record: 48 h and 72 h at 10 ng/μl. The method, then: (§2) The inhibition ratio (IR) and the half maximal inhibitory concentration (IC50) values are determined by a MTT assay.
Background: Formazan colour is commonly taken as a measure of viable cells.

Assay [6] has as its system HCC4006 lung adenocarcinoma cell line. In words: MTT assay, growth inhibition of HCC4006 cell line. To be noted: 48 h and 72 h at 0.5 ng/μl and 10 ng/μl. It counts as cell-based. The procedure: as §2
Assay [7] has as its system HCC2935 lung adenocarcinoma cell line. In words: MTT assay, growth inhibition of HCC2935 cell line. It counts as cell-based. The settings on record: 72 h at 10 ng/μl only. The procedure: as §2
The test system of assay [8] is H1975 lung adenocarcinoma cell line. The assay can be described thus: MTT assay, growth inhibition of H1975 cell line. The settings on record: 48 h and 72 h at 0.5 ng/μl and 10 ng/μl. It counts as cell-based. The method, then:
as §2

For assay [9], the system named is HCC827 lung adenocarcinoma cell line. In words: MTT assay, growth inhibition of HCC827 cell line. To be noted: 48 h and 72 h at 0.5 ng/μl and 10 ng/μl. It counts as cell-based. The procedure:
as §2

For assay [10], the system named is HCC4006 lung adenocarcinoma xenografts. The assay can be described thus: HCC4006 lung adenocarcinoma xenograft. It counts as in vivo, BALB/c nude mice. The procedure: In one example embodiment, ten million lung adenocarcinoma cells from cell lines H1650, H1975, and HCC4006 are engrafted subcutaneously in BALB/cnude mice (4 weeks old with body weight of 10-14 g). Body weight, clinical signs and survival times are recorded.
Two groups of the mice, with eight mice in each group, are tested. Control group (negative control) receives physiological saline and treatment group receives 20 mg/kg of PEG-BCT-100. PEG-BCT-100 is administered via intraperitoneal (IP) injection, twice weekly, until euthanization.
In one example embodiment, ten million lung adenocarcinoma cells from cell lines H1650, H1975 and HCC4006 are engrafted subcutaneously in BALB/cnude mice (4 weeks old with body weight of 10-14 g). Body weight, clinical signs and survival times are recorded.
Four groups of the mice, with eight mice in each group, are tested. Control group (negative control) receives physiological saline, and the three treatment groups respectively receive 20 mg/kg of PEG-BCT-100 alone, 2% w/v DFMO in drinking water, and combination of 20 mg/kg of PEG-BCT-100 and 2% w/v DFMO. PEG-BCT-100 is administered intraperitoneally, twice a week, until euthanization while DFMO is supplied in drinking water at 2% w/v.

Assay [11] has as its system H1650 lung adenocarcinoma cell line. In words: MTT assay, growth inhibition of H1650 cell line. The format is cell-based. The settings on record: 48 h and 72 h at 10 ng/μl. The method, then:
as §2

Take `NCCC[C@](N)(C(=O)O)C(F)F` [DFMO, α-difluoromethylornithine, reference compound]: the anti-tumour effect entry in [1] is “do not produce a significant anti-tumour effect”; in [2], “significant anti-tumour effect”; in assay [3], “significant anti-tumour effect”; in assay [4] it was “no significant anti-tumour effect”.

B1: PEG-BCT-100: pegylated recombinant human arginase I (SEQ ID NO.1, or SEQ ID NO.3 with six histidines), about 6-12 PEG molecules per arginase (protein, UniProt P05089 1-322, looked up)
Arginase-1: MSAKSRTIGIIGAPFSKGQPRGGVEEGPTVLRKAGLLEKLKEQECDVKDYGDLPFADIPNDSPFQIVKNPRSVGKASEQLAGKVAEVKKNGRISLVLGGDHSLAIGSISGHARVHPDLGVIWVDAHTDINTPLTTTSGNLHGQPVSFLLKELKGKIPDVPGFSWVTPCISAKDIVYIGLRDVDPGEHYILKTLGIKYFSMTEVDRLGIGKVMEETLSYLLGRKKRPIHLSFDVDGLDPSFTPATGTPVVGGLTYREGLYITEEIYKTGLLSGLDIMEVNPSLGKTPEEVTRTVNTAVAITLACFGLAREGNHKPIDYLNPPK
modifications: PEG, about 6-12 per arginase; optional His6 tag
In the case of B1, the “growth inhibition effect (cell proliferation)” value in assay [5] was “inhibits H358 lung adenocarcinoma cell line proliferation more effectively than ADI”; in assay [6], “inhibits HCC4006 lung adenocarcinoma cell line proliferation more effectively than ADI”; in assay [8] it was “inhibits H1975 lung adenocarcinoma cell line proliferation”; in assay [9], “inhibits HCC827 lung adenocarcinoma cell line proliferation more effectively than ADI”; in assay [11], “inhibits H1650 lung adenocarcinoma cell line proliferation more effectively than ADI”. In addition, the anti-tumour effect result in [1] is on record as “do not produce a significant anti-tumour effect”; in [2] it was “does not produce a significant anti-tumour effect”; in assay [4], “no significant anti-tumour effect”. In addition, the “growth inhibition effect (cell proliferation / toxicity)” value in assay [7] was “induces toxicity in HCC2935 lung adenocarcinoma cell line”. Also, the tumour growth result in [10] (PEG-BCT-100 20 mg/kg IP twice weekly, DFMO 2% w/v in drinking water, 20 mg/kg) is “suppresses tumor growth; also recorded: inhibits tumour growth”. Further, the “in vivo ASS1 expression (Western blot)” value in [10] (PEG-BCT-100 20 mg/kg vs control arm) is “remains unchanged”. The “in vivo ODC expression (Western blot)” value in [10] (PEG-BCT-100 20 mg/kg vs control arm, 20 mg/kg) is on record as “remains negative; also recorded: does not show upregulation of ODC”.
